This note sets out measurements from the RNAGym collection of RNA variant scans (doi:10.1073/pnas.2313332121).

Sequences and labels used below:
B1: TPR t1 (parent)
chain: GACCAAUCUGCCCUCAGAGCUCGAGAACAUCUUCGGAUGCAGAGGAGGCAGGCUUCGGUGGCGCGAUAGCGCCAACGUCCUCAACCUCCAAUGCAUCCCACCACAUGAUGAUGCCUGAAGAGCCUUGGUUUUUUG

In the data set the parent is B1. The experiment in a line: polymerase ribozyme fitness, log enrichment relative to wild type (log ratio); higher = more active; in vitro selection for triplet polymerase activity. In outline: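 Input and output libraries were sequenced on Illumina after a single in vitro selection round, run in triplicate on PCR-built, transcribed mutant libraries of each subunit of a heterodimeric triplet polymerase ribozyme. Selection annealed libraries to a biotinylated primer, the partner subunit and triplets, incubated them frozen at −7 °C, then gel-excised extended constructs for streptavidin-bead capture and RT-PCR. Genotypes with ≥10 input reads and ≥1 read per output were kept. Fitness is the logarithm, taken in base 2, of genotype enrichment divided by wild-type enrichment, using inverse-variance-weighted replicate averages.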
As to GACCAAUCUGCCCUCAGAGCUCGAGAACAUCUUCGGAUGCAGAGGCGGCAGGCUUCGGUGGCGCGAUAGCGCCAACGUCCUCAACCUCCAAUGCAUCCCACAACAUGAUGAUGCCUGAAUAGACUUGGUUUUUUG [A46C C102A G120U C123A], the “polymerase ribozyme fitness (log ratio)” value is -2.45.
The value for GACCAAUCUGCCCUCAGAGCUCGAGAACAUCUUCGGAUGCAGAGGGGGCAGGCUUCGGUGGCGCGUUAGCGCAAACGUCCUGAACCUCCAAUGCAUCCCACCACAUGAUGAUGCCUGAAGAGCCUUGGUUUUUUG [A46G A66U C73A C82G] was -2.3; that for GACCAAUCUGCCCUCAGAGCUCGAGAACAUCUUCGGAUGCAGAGGCGGCAGGUGUCGGUGGCGCGAUAGCUCCAACGUCCUCAACCUCCAAUGCAUCCCACCACAUGAUGAUGCCUGAAUAGCCUUGGUUUUUUG [A46C C53U U54G G71U G120U] was -0.575; that for GACCAAUCUGCCCUCAGAGCUCGAGAACAUCUUCGGAUGCAGAGGCGGCAGGCUUCGGUGGCGCGAUAGCGCCAACGUCCUCAACUUCCAAUGCGUCCCACCACAUGAUGAUGGCUGAAGAGCCUUGGUUUUUUG [A46C C86U A95G C114G] was -3.71.
Then GACCAAUCUGCCCUCAGAGCUCGAGAACAUCUUCGGAUGCAGAGGCGGCAGGCUUCGGUGGCGCGAUAGCGCCAACGUCCUCAACCACCACUGCAACCCACCACAUGAUGAUGCCUGAAGAGCCUUGGUUUUUUG [A46C U87A A91C U96A], with -2.01; and GACCAAUCUGCCCUCAGAGCUCGAGAACAUCUUCGGAUGCAGAGGGGGCAGGCUUCGGUGGCGCGAUAGCGGCAACGUCCUCAAGCUCCAAUGCAUCCCACCACAUGAUGAUGCCUGAAGAGCCUUGGUUUUUUG [A46G C72G C85G], with -4.41.
Then GACCAAUCUGCCCUCAGAGCUCGAGAACAUCUUCGGAUGCAGAGGGGGCAGGCUUCGGUGGCUCGAUAGCGCCAACGUCCUCAACCUCCAAUGCAUCCCACCACAUGAUGAUGCCUGAAGUGCCUAGGUUUUUUG [A46G G63U A121U U126A], with 0.154.
As for GACCAAUCUGCCCUCAGAGCUCGAGAACAUCUUCGGAUGCAGAGGCGGCAGGCUUCGGUGGCGCGAUAGCGCCAACGUCCUCAACCACCAAUGCAUCCCACCACAUGAUGAUGCCUGAAGAGUCUUGGUUUAUUG [A46C U87A C123U U132A], the “polymerase ribozyme fitness (log ratio)” value was 1.86.
The value for GACCAAUCUGCCCUCAGAGCUCGAGAACAUCUUCGGAUGCAGAGGGGGCAGGCUUCGGUGGCGUGAUAGCGCCAACGUCCUCAACCUCCAAUGCAUCCCACCACAUGAUGAUGCCUGAAGAGCCUUGGUUUUUUG [A46G C64U] was -0.426.
The value for GACCAAUCUGCCCUCAGAGCUCGAGAACAUCUUCGGAUGCAGAGGGGGCAGGCUUCGGUGGCGCGAUAGCGCCAACGUCCUCAACCUCCAAUGCAUCCCACCACAUGAUGAUUCCUGAAGAGCCUUGGUUUUUUG [A46G G113U] was -2.95; that for GACCAAUCUGCCCUCAGAGCUCGAGAACAUCUUCGGAUGCAGAGGGGGCAGGAUUCGGUGGCGCGAUAGCGCCAACGUCCUCAACCUCCAAUGCAUCCCACCACAUGAUGAUGCCUGAAGAGCCUUGGUUUUUUU [A46G C53A G135U] was -1.55; that for GACCAAUCUGCCCUCAGAGCUCGAGAACAUCUUCGGAUGCAGAGGGGGCAGGCUUCGGUGGCGCGAUAGCGCCAACGUCCUCAACCUCCAAUGCAUCCCACCACCUGAUGAUGCCUGAAGAGCCUUGGUUUUUUG [A46G A105C] was -1.62.
The value for GACCAAUCUGCCCUCAGAGCUCGAGAACAUCUUCGGAUGCAGAGGCAGCGGGCUUCGGUGGCGCGAUAGCGCCAACGUCCUCAACCUCCAAUGCAUACCACCACAUGAUGAUGCCUGAAGGGCGUUGGUUUUUUG [A46C G47A A50G C97A A121G C124G] was -5.64; that for GACCAAUCUGCCCUCAGAGCUCGAGAACAUCUUCGGAUGCAGAGGGGGCAGGCUUCGGUGGCGCGAUAUCGCCAACGUCCUCAACCUCCAAUGCAUCCCACCACAUGAUGAUGCCUGAAGAGCCUUGGUUUUUUG [A46G G69U] was 0.473; that for GACCAAUCUGCCCUCAGAGCUCGAGAACAUCUUCGGAUGCAGAGGGGGCAGGCUUCGGUGGCGCGAUAGCGCUAACGUCCUCAACCUACAAUGCAUCCCACCACAUGAUGAUGCCUGAAGAGCCUUGGUAUUUUG [A46G C73U C88A U130A] was -3.03.
Consider GACCAAUCUGCCCUCAGAGCUCGAGAACAUCUUCGGAUGCAGAGGCGGCAGGCUUUGGUGGCACGAUAGCGCCAACGUCCUCAACCUCCAAUGCAUCCCACCACAUGAUGAUGGCUGAAGAGCCUUCGAUUUUUG [A46C C56U G63A C114G G127C U129A], for which the “polymerase ribozyme fitness (log ratio)” value is -5.93.
Then GACCAAUCUGCCCUCAGAGCUCGAGAACAUCUUCGGAUGCAGAGGGGGCAGGCUUCGGUGGCGCGAUAGCGCCAACGUCCUCAACCUCCGAUGCAUCCCAUCACAAGAUGAUGCCUGAAGAGCCUUGGUUUUUUG [A46G A90G C101U U106A], with -0.372; and GACCAAUCUGCCCUCAGAGCUCGAGAACAUCUUCGGAUGCAGAGGCGACAGGCUUCGGUGGCGCGAUAGCGCCAACGUCCUCAACCUCCAAUGCAUCCCAUCACAUGAUCAUGCCUGAAGAGCCUUGGUUUUUUG [A46C G48A C101U G110C], with -6.49; and GACCAAUCUGCCCUCAGAGCUCGAGAACAUCUUCGGAUGCAGAGGCGGCAGGUUUAGGUGGCGCGAUAGCGCCAACGUCCUCAACCUCCAAUGCAUCCCACCACAUGAUGAAGCCUGAAGAGCCUUGGUUUUUUG [A46C C53U C56A U112A], with 0.259.
Then GACCAAUCUGCCCUCAGAGCUCGAGAACAUCUUCGGAUGCAGAGGGGGCAGGCUUCGGUUGCGCGAUAGCGCCAACGUCCUCAACCUCCAAUGCAUCCCACCACAUGAUGAUGCCUGAAGAGCCUUGGUUUUUUG [A46G G60U], with -0.448; and GACCAAUCUGCCCUCAGAGCUCGAGAACAUCUUCGGAUGCAGAGGGGGCAGGCUUCGGUGGCGCGAUAGCGCCAACGUCCUCAACCUCCAAUGCAUCCCACCUCAUGAUGAUGCCUGAAGAGCCAUGGUUUUUUG [A46G A103U U125A], with -5.23.
